Experiments:
rat NP cells = test: Western blotting of rat NP cells treated with IL-1β/TNFα with or without inhibitors or growth factors; format: cell-based; conditions: rat-tail NP cells treated with IL-1β and TNFα, Western blot, FIG. 5g-5h
Procedure: After euthanasia, healthy rat lumbar/caudal spine IVDs, injured tail discs and bovine caudal IVD NPs were removed aseptically and the nucleus pulposus (NP) was removed separately and enzymatically digested according to methods established by the present inventors^16. Similarly, human degenerative disc NPs were enzymatically digested using Pronase (0.4%, 1 hr at 37° C.) followed by Collagenase II treatment (0.015%, O/N, 37° C.). The following day, the cells were filtered with a 70p cell strainer and cultured within a hypoxic incubator (NuAire, MN, USA) in 3.5% O2, 5% CO2, in Advanced Dulbecco's modified Eagle's medium (ADMEM) supplemented with 8% fetal bovine serum (FBS) and penicillin and streptomycin (100 U/mL). For treatments, the cells were either cultured in serum free ADMEM (no treatment controls) or treated with interleukin-1β (IL-1β, 10 ng/mL), tumor necrosis factor-alpha (TNFα, 50 ng/mL), connective tissue growth factor (CTGF, 10-100 ng/mL), Wnt-inducible soluble protein 2 (WISP2, 10-100 ng/mL) or transforming growth factor beta 1 (TGFβ1, 5-20 ng/mL) for various time points under hypoxic conditions.
Equal amounts of whole cell or tissue lysates prepared using RIPA lysis buffer were subjected to Western blotting as described earlier^18,19. Total lysates (30 μg) were resolved on 10% sodium dodecyl sulphate-polyacrylamide gels (SDS-PAGE) under reducing conditions and then proteins were electro-transferred onto polyvinyledendifluoride (PVDF) membranes (BioRad, CA). After blocking with 5% non-fat powdered milk in Tris-buffered saline (TBS, 0.1 M, pH=7.4), blots were incubated with rabbit or goat polyclonal/mouse monoclonal primary antibodies at 4° C. overnight. […] Blots were washed three times with TTBS for 15 minutes and protein bands were detected by the enhanced chemiluminescence method (BioRad, CA) on Kodak Hyperfilm.

[1] = system: human degenerative disc NP cells; test: Caspase 9 Lumi-Glo assay, cytokine induced; format: cell-based; conditions: 48 hrs
Procedure: Apoptosis induced in NP cells (rat and human) as result of treatment with pro-inflammatory cytokines (IL-1β and TNFα) was determined using Caspase 3/7 and Caspase 9 specific Lumi-Glo assays (Promega, Madison). Briefly, NP cells were plated and treated with either IL-1β alone or in combination with TNFα only or in presence of CTGF and TGFβ1 for 48 hrs, followed by addition of specific reagents for Caspase 3/7 and Caspase 9 as per the manufacturer's instructions. Cells were incubated for another 4 hrs at 37° C., and plates were read in a multi-well luminescence plate reader.

[2] = system: rat-tail disc NP cells (healthy/injured); test: MTT cell viability assay; format: cell-based; conditions: CTGF 100 ng/ml, TGFβ1 10 ng/ml, 48 hrs-72 hrs
Procedure: (§1) Nucleus pulposus cells (rat, bovine and human) were plated in 96-well flat bottom plates in order to evaluate the effect of treatment with growth factors in cell viability and proliferation assays. Rat NP cells were treated with CTGF, WISP-2 and TGFβ1 in a dose (1 ng/mL-100 ng/mL) and time dependent manner (24 hrs-96 hrs) to determine the optimum dose and time for the assessment of these growth factors on viability. Cell viability was determined using 3-(4,5-dimethylthiazol-2-yl)-2,5-diphenyltetrazolium bromide (MTT, Sigma-Aldrich, USA) as previously described^44. A BrdU-ELISA (colorimetric) assay (Cat #ab126556, Abcam) was used for determining the effect of treatment with CTGF or TGFβ1 on human and rat NP cells (healthy/injured) following the manufacturer's instructions. Briefly, NP cells were treated with CTGF or TGFβ1 alone or in combination for 48 hrs following addition of BrdU reagent O/N in each well. Incorporated BrdU in DNA of proliferating cells was determined using anti-BrdU antibody and quantified by ELISA as per the manufacturer's instructions.

[3] = system: human degenerated disc NP cells; test: MTT cell viability assay; format: cell-based
Procedure: as §1

[4] = system: bovine degenerative disc NP cells; test: MTT cell viability assay; format: cell-based; conditions: CTGF 100 ng/ml, TGFβ1 10 ng/ml, 48 hrs-72 hrs
Procedure: as §1

[5] = system: rat-tail injured disc NPs; test: Pre-clinical rodent needle puncture disc injury model of DDD, intra-discal injection; format: in vivo, Wistar rat
Procedure: 12-week old female Wistar rats (Charles River Laboratories International, Inc., MA, USA) were used in order to develop a pre-clinical rodent model of DDD and to evaluate the therapeutic potential of NCCM, CTGF and TGFβ1 in these pre-clinical rodent models. Experiments were performed in accordance with the Guide for the Care and Use of Laboratory Animals, and the experimental protocols were approved by the ethics approval board of Toronto Western Hospital, Toronto, ON, Canada. The surgical procedure was as follows: Anesthesia was achieved using isofluorane (5 L/min plus 1 L/min O2) and maintained at 3 L/min. Once deeply anaesthetized, the animal was affixed on a stereotactic procedure apparatus (Model 900, Kopf Instruments California USA) with nose cone inhalation. For animal experiments, the tail was shaved and prepped with isopropanol in a sterile manner. Fluoroscopy was used to visualize needle penetration and to ensure that the needle penetrated into the center of the NP. For disc injury, a 26-gauge (G), 35° beveled, 0.75 inches high needle (Hamilton Company, USA) mounted on a Hamilton syringe was used. The needle was advanced completely through the selected tail IVD to penetrate the full thickness inclusive of the annulus fibrosus on both sides of the disc. Confirmation of needle placement was made using fluoroscopy and maintained in position for 2 minutes, withdrawn halfway to the center of the NP and left there for 1 minute and then slowly withdrawn completely over a 1-minute period. The animals were then removed from the stereotactic apparatus and allowed to recover in a warmed cage. At the end of study period i.e. 72 hrs-10 weeks, animals were humanely euthanized using CO2 and each vertebral lumbar/caudal motion segment was dissected aseptically. IVDs were either fixed in formalin for histological analysis or the nucleus pulposus (healthy/injured) was harvested and lysed in RIPA buffer (50 mM Tris, pH=7.4, 150 mM NaCl, 1% NP-40 and protease inhibitor cocktail) for western blotting.
To determine the regenerative potential of NCCM, CTGF or TGFβ1, 4 IVDs per animal of 12 week old rats were injured using a 26G needle as described above. Four weeks post-injury, animals were randomized into groups of six and an intra-discal injection (˜8 μL) of either NCCM, CTGF (100 ng/mL) or TGFβ1 (10 ng/mL) was given under local anesthesia. For NCCM injected animals, the control group consisted of animals that received an intra-discal injection (˜8 μL) of Hybridoma culture medium only, while phosphate buffered saline (PBS, 1×, pH=7.2) served as control for CTGF and TGFβ1 injected animal groups. Six weeks later, the NPs from injured and control discs were harvested and either fixed in formalin for histological analysis or lysed in RIPA lysis buffer for western blotting. Each of this experiment was repeated independently to ensure reproducibility.
The tissues were fixed in 10% formalin and decalcified in 10% EDTA solution. The decalcified disc was initially split in the mid sagittal plane, embedded in paraffin and 5p thick sections were obtained for histological evaluation. Hemaetoxylin and eosin (H&E) and Safranin-O staining was performed to assess general morphology and proteoglycan content in these tissue sections as previously described^16. For immunohistochemistry/immunofluorescence (IF), paraffin-embedded sections (5 μm) of human degenerative disc NP, bovine NP, healthy canines (NCD) and rat (healthy/injured) discs were deparaffinized in xylene, hydrated in gradient alcohol followed by antigen retrieval in Tris-EDTA buffer (pH=9.0). The sections were incubated with hydrogen peroxide (0.3% v/v) in methanol for 15 minutes to quench the endogenous peroxidase activity, followed by blocking with 10% serum to preclude non-specific binding. Thereafter, the slides were incubated with either rabbit or goat polyclonal/mouse monoclonal primary antibodies overnight (O/N) at 4° C. […]

[6] = rat tail injured discs, western blots, FIG. 12(b)

Molecule | expression of MMP-3, MMP-13 and Cox2 proteins in presence of growth factor (rat NP cells) | IL-1β and TNFα induced caspase 9 activity [1] | cell viability (MTT) [2] | cell viability (MTT) [3] | cell viability (MTT) [4] | aggrecan and collagen II (immunohistochemical analysis) ([5]; intra-discal injection four weeks following injury, 10 weeks post-injury, vs vehicle control) | histological analysis, Safranin-O staining of NP ([5]; intra-discal injection four weeks following injury, CTGF 100 ng/mL, TGFβ1 10 ng/mL, 10 weeks post-injury, vs PBS) | expression of MMP-13 and Cox2 in NP tissue lysates [5, 6] | stem cell marker Oct4 in NP tissue lysates [5, 6]
WISP-2: Human recombinant Wnt-inducible soluble protein 2, Peprotech, identified in NCCM (protein, UniProt O76076 24-250, looked up) CCN family member 5: QLCPTPCTCPWPPPRCPLGVPLVLDGCGCCRVCARRLGEPCDQLHVCDASQGLVCQPGAGPGGRGALCLLAEDDSSCEVNGRLYREGETFQPHCSIRCRCEDGGFTCVPLCSEDVRLPSWDCPHPRRVEVLGKCCPEWVCGQGGGLGTQPLPAQGPQFSGLVSSLPPGVPCPEWSTAWGPCSTTCGLGMATRVSNQNRFCRLETQRRLCLSRPCPPSRGRSPQNSAF | reduced expression | significant reduction | no significant change | no significant change |  |  |  |  | 
CTGF: Human recombinant connective tissue growth factor, Peprotech cat #120-19, identified in NCCM (protein, UniProt P29279 27-349, looked up) CCN family member 2: QNCSGPCRCPDEPAPRCPAGVSLVLDGCGCCRVCAKQLGELCTERDPCDPHKGLFCHFGSPANRKIGVCTAKDGAPCIFGGTVYRSGESFQSSCKYQCTCLDGAVGCMPLCSMDVRLPSPDCPFPRRVKLPGKCCEEWVCDEPKDQTVVGPALAAYRLEDTFGPDPTMIRANCLVQTTEWSACSKTCGMGISTRVTNDNASCRLEKQSRLCMVRPCEADLEENIKKGKKCIRTPKISKPIKFELSGCTSMKTYRAKFCGVCTDGRCCTPHRTTTLPVEFKCPDGEVMKKNMMFIKTCACHYNCPGDNDIFESLYYRKMYGDMA | reduced expression | significant reduction | increased the viability |  | increased the viability | strong expression | healthy disc, rich in NCs | decreased expression | restoration

From US12465618B2, “Compositions and methods for degenerative disc regeneration” (University Health Network, priority 2015, dated 2025)
